# Measured values: patent US20250000936A1, “TREATMENT OF GEOGRAPHIC ATROPHY” (Apellis Pharmaceuticals, Inc., priority 2021, published 2025)
# Values joined by “and” are separate entries in the source; they are usually repeats but may differ in a detail not shown here. Equal values may be shown once.
# System: patients with geographic atrophy (GA) secondary to age-related macular degeneration (AMD)
# Test: DERBY Phase 3 study: safety
# Details: for Patients with new onset fellow eye eAMD: through 18 months
# [1] = PEOM (every other month), 12 months
# [2] = PEOM (every other month), 18 months
# [3] = PEOM (every other month), N=208
substance,measurement,setting,value
"Poly(oxy-1,2-ethanediyl), α-hydro-ω-hydroxy-, 15,15′-diester with N-acetyl-L-isoleucyl-L-cysteinyl-L-valyl-1-methyl-L-tryptophyl-L-glutaminyl-L-α-aspartyl-L-tryptophylglycyl-L-alanyl-L-histidyl-L-arginyl-L-cysteinyl-L-threonyl-2-[2-(2-aminoethoxy) ethoxy]acetyl-N^6-carboxy-L-lysinamide cyclic (2->12)-(disulfide) [pegcetacoplan]","All TEAEs, Total events, M",[1],600
same,"All TEAEs, patients",[1],155 (74.5%) n (%)
same,Cases of MNV (FA) detected by reading center but not reported by Investigator as AE,[1],1
same,"Non-ocular TEAEs, Patients",[1],110 (52.9%) n (%)
same,"Non-ocular TEAEs, events M",[1],339
same,"Ocular TEAE in study eye Vitreous floaters, events M",[1],5
same,"Ocular TEAE in study eye Vitreous floaters, patients",[1],4 (1.9%) n (%)
same,"Ocular TEAEs in study eye, Patients",[1],91 (43.8%) n (%) and 91 (43.8) n (%)
same,"Ocular TEAEs in study eye, events M",[1],162
same,"Serious ocular TEAE Dry AMD, patients",[1],0 n (%)
same,"Serious ocular TEAE Endophthalmitis, patients",[1],0 n (%)
same,"Serious ocular TEAE Macular hole, patients",[1],0 n (%)
same,"Serious ocular TEAE Optic ischemic neuropathy, patients",[1],0 n (%)
same,"Serious ocular TEAE Papilledema, patients",[1],0 n (%)
same,"Serious ocular TEAE Retinal detachment, patients",[1],0 n (%)
same,"Serious ocular TEAE Vitritis, patients",[1],0 n (%)
same,"Serious ocular TEAEs in the study eye, patients",[1],0 n (%)
same,Sum of investigator-determined eAMD and reading center cases not reported by investigators,[1],(3.8%)
same,Sum of investigator-determined eAMD and reading center cases not reported by investigators,"PEOM (every other month), 12 months, count",8
same,"All TEAEs, Total events, M",[2],835
same,"All TEAEs, patients",[2],171 (82.2%) n (%)
same,"Non-ocular TEAEs, M",[2],495
same,"Non-ocular TEAEs, Patients",[2],132 (63.5%) n (%)
same,"Ocular TEAEs in study eye, M",[2],216
same,"Ocular TEAEs in study eye, Patients",[2],99 (47.6%) n (%)
same,"Discontinued study prior to Month 12, reason Adverse Event",[3],4 (1.9%) n (%)
same,"Discontinued study prior to Month 12, reason Death",[3],0 n (%)
same,"Discontinued study prior to Month 18, reason Adverse event",[3],4 (1.9%) n (%)
same,"Discontinued study prior to Month 18, reason Death",[3],4 (1.9%) n (%)
same,Patients with new onset fellow eye eAMD,"PEOM (every other month), 166 patients without baseline fellow eye CNV",8 (4.8%) n (%)
same,"All TEAEs, Total events, M","PM (monthly), 12 months",708
same,"All TEAEs, patients","PM (monthly), 12 months",158 (76.7%) n (%)
same,Cases of MNV (FA) detected by reading center but not reported by Investigator as AE,"PM (monthly), 12 months",0
same,"Non-ocular TEAEs, Patients","PM (monthly), 12 months",127 (61.7%) n (%)
same,"Non-ocular TEAEs, events M","PM (monthly), 12 months",396
same,"Ocular TEAE in study eye Vitreous floaters, events M","PM (monthly), 12 months",22
same,"Ocular TEAE in study eye Vitreous floaters, patients","PM (monthly), 12 months",18 (8.7%) n (%)
same,"Ocular TEAEs in study eye, Patients","PM (monthly), 12 months",100 (48.5%) n (%)
same,"Ocular TEAEs in study eye, events M","PM (monthly), 12 months",227
same,"Serious ocular TEAE Dry AMD, patients","PM (monthly), 12 months",0 n (%)
same,"Serious ocular TEAE Endophthalmitis, patients","PM (monthly), 12 months",0 n (%)
same,"Serious ocular TEAE Macular hole, patients","PM (monthly), 12 months",0 n (%)
same,"Serious ocular TEAE Optic ischemic neuropathy, patients","PM (monthly), 12 months",0 n (%)
same,"Serious ocular TEAE Papilledema, patients","PM (monthly), 12 months",0 n (%)
same,"Serious ocular TEAE Retinal detachment, patients","PM (monthly), 12 months",0 n (%)
same,"Serious ocular TEAE Vitritis, events M","PM (monthly), 12 months",1
same,"Serious ocular TEAE Vitritis, patients","PM (monthly), 12 months",1 (0.5%) n (%)
same,"Serious ocular TEAEs in the study eye, events M","PM (monthly), 12 months",1
same,"Serious ocular TEAEs in the study eye, patients","PM (monthly), 12 months",1 (0.5%) n (%)
same,Sum of investigator-determined eAMD and reading center cases not reported by investigators,"PM (monthly), 12 months",(6.8%)
same,Sum of investigator-determined eAMD and reading center cases not reported by investigators,"PM (monthly), 12 months, count",14
same,"All TEAEs, Total events, M","PM (monthly), 18 months",993
same,"All TEAEs, patients","PM (monthly), 18 months",170 (82.5%) n (%)
same,"Non-ocular TEAEs, M","PM (monthly), 18 months",567
same,"Non-ocular TEAEs, Patients","PM (monthly), 18 months",148 (71.8%) n (%)
same,"Ocular TEAEs in study eye, M","PM (monthly), 18 months",308
same,"Ocular TEAEs in study eye, Patients","PM (monthly), 18 months",118 (57.3%) n (%)
same,"Discontinued study prior to Month 12, reason Adverse Event","PM (monthly), N=206",1 (0.5%) n (%)
same,"Discontinued study prior to Month 12, reason Death","PM (monthly), N=206",5 (2.4%) n (%)
same,"Discontinued study prior to Month 18, reason Adverse event","PM (monthly), N=206",3 (1.5%) n (%)
same,"Discontinued study prior to Month 18, reason Death","PM (monthly), N=206",6 (2.9%) n (%)
same,Patients with new onset fellow eye eAMD,"PM (monthly), 167 patients without baseline fellow eye CNV",4 (2.4%) n (%)
same,patients with study eye investigator-determined new-onset exudative AMD,"every other month, month 18, 11/208 patients",5.3%
same,patients with study eye investigator-determined new-onset exudative AMD,"monthly, month 18, 24/206 patients",11.7%
